In data set [1] the target is T1, ELP-substrate fusion M(GVGVP)60GDGQVPMSMRGGDDEGQQDDEEGY
T1 chain: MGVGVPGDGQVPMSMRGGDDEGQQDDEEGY

The target in data set [2] is T2, MSKGPGWGVG(VPGVG)60GDGQVPMSMRGGDDEGQQDDEE(VPGAGVPGGG)30YG fusion polypeptide.
T2 chain: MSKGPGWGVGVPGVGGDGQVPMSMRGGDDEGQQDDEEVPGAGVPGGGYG

For data set [3], the target named is T3, A4 construct M(YPSDGRGQ)40YGDGQVPMSMRGGDEGQQDDEEGY
T3 chain: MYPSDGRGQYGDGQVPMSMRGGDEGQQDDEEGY

B1: Human MMP-1 catalytic domain (recombinant, produced in E. coli, 19.9 kDa) (protein)
chain: FVLTEGNPRWEQTHLTYRIENYTPDLPRADVDHAIEKAFQLWSNVTPLTFTKVSEGQADIMISFVRGDHRDNSPFDGPGGNLAHAFQPGPGIGGDAHFDEDERWTNNFREYNLHRVAAHELGHSLGLSHSTDIGALMYPSYTFSGDVQLAQDDIDGIQAIYGRSQNPVQP
As to B1, in data set [1], the “catalytic constant (kcat) from Lineweaver-Burke plot, SDS-PAGE densitometry, 20 ng/mL enzyme, 40 C” value was found to be 8.0 ± 1.9 s⁻¹; the “mass spectrometry of the polypeptide before and after incubation with 100 ng/mL MMP-1 for 2 h at 25 C” value is given as “most of the 1.8 kDa MMP-sensitive peptide is cleaved off the 25.4 kDa ELP”; the “optical density at 350 nm and DLS particle size after 12 h with 100 ng/mL MMP-1 at 40 C” value is “the optical density of the solution shows a dramatic increase as the solution is heated above the CMT to 45 °C”. In data set [2], the “optical density versus temperature before and after incubation with MMP-1” value is reported as “Incubation of these micelles with MMP-1 enzyme is shown to result in drastic changes in optical densities at the micelle-forming transition temperature”. Besides, the “transition temperature of 25 µM A4 before and after incubation with 25 ng/mL MMP-1 at 37 C” value in data set [3] is “a change in transition temperature of A4 construct at 25 µM prior to (solid line) and after (dashed line) incubation with 25 ng/mL of MMP-1 enzyme”.

(Values after US20160348147.)
